Laboratory results taken from US20210386829A1, “COMPOSITIONS AND METHODS FOR MODULATING CGRP SIGNALING TO REGULATE INNATE LYMPHOID CELL INFLAMMATORY RESPONSES” (The Broad Institute, Inc., priority 2018, published 2021).

Tested on: lung-resident ILCs
Assay: SMART-Seq2 plate-based scRNA-seq of lung-resident ILCs from PBS-, IL-25- or IL-33-treated mice, differential gene expression by logistic regression (Tables 3, 4)
Assay type: in vivo, mouse
Description: Mice and in vivo ILC activation. C57B1/6J mice were purchased from the Jackson Laboratory. Nmur1-LacZ reporter mice with a LacZ cassette knocked into the Nmur1 locus were rederived from Nmur1^tm1.1(KOMP)Vlcg sperm obtained from the trans-NIH Knock-Out Mouse Project (KOMP) Repository. NMU-deficient mice (NMU-KO) were rederived from B6.129S2-Nmu<tm1Mko> embryos from the RIKEN BioResource Center. For experiments with Nmur1-LacZ (Nmur1-KO) and NMU-KO mice, littermates that were either homozygous or heterozygous for the wild type allele were used as controls. Mice were housed under specific-pathogen-free conditions. For experiments, mice were matched for sex and age, and most mice were 6-10 weeks old. Where indicated, mice were anesthetized with Isoflurane and treated intranasally with the indicated stimuli (500 ng IL-25, 500 ng IL-33, or 20 μg Neuromedin U) daily for three consecutive days. The total administered volume was 20 μl for all conditions. Mice were randomly assigned to treatment groups after matching for sex and age. […] Mice were treated intranasally with 10 μg HDM on day 0, 7, 8, and 9, prior to sacrifice on day 10. All experiments were conducted in accordance with animal protocols approved by the Harvard Medical Area Standing Committee on Animals or BWH IACUC.
Fluorescence-activated cell sorting of innate lymphoid cells. After dissociation, single cell suspensions were incubated with CD90.2 MicroBeads (Miltenyi Biotec) on ice and enriched for CD90.2^+ cells by magnetic separation using LS columns according to the manufacturer's protocol. CD90.2^+ lung cells were then stained on ice with antibodies for sorting. ILCs were defined as 7AAD^− CD45^+ CD90.2^+ CD127^+ Lineage (CD11b, CD11c, CD19, NK1.1, […], CD4, CD8a, TCRβ, TCRγδ)^− cells and sorted on a BD FACS Aria (BD Biosciences).
For full-length scRNA-Seq, single ILCs were sorted into 96-well plates containing 5 ul TCL Buffer (QIAGEN) with 1% 2-Mercaptoethanol, centrifuged and frozen at −80° C. SMART-Seq2 protocol was carried out as previously described^23 with minor modifications in the reverse transcription step. cDNA was amplified with 22 cycles and fragmented with one-eighth of the standard Illumina NexteraXT reaction volume. Single-cell libraries were pooled and paired-end sequenced (38 bp×2) with a 75 cycle Nextseq 500 high output V2 kit.
Analysis of SMART-Seq2 plate-based scRNA-Seq data. Reads were aligned to mm10 using Kallisto (Bray, N. L., Pimentel, H., Meisted, P. & Pachter, L. Near-optimal probabilistic RNA-seq quantification. Nat Biotechnol 134, 525-527, doi:10.1038/nbt.3519 (2016)) quant, version 0.42.3. The R package tximport (Soneson, C., Love, M. I. & Robinson, M. D. Differential analyses for RNA-seq: transcript-level estimates improve gene-level inferences [version 2; referees: 2 approved]. F1000Research 4, doi:10.12688/f1000research.7563.2 (2016)), version 1.2.0, was used to convert the output to gene counts and traditional TPM values. Because of the variability in read counts per cell across plates, even from the same condition, as well as in the number of genes per cell across conditions, QC was performed for each of eight plates individually in order to remove cells that were outliers with respect to either measure. Out of 752 cells, 606 cells met QC criteria (234 from control, 152 from IL-25 treated mice, and 220 from IL-33 treated mice), and the number of genes per cell in this set ranged from 1,625 to 6,375. Genes that were not expressed with log(TPM)>2.5 in at least two cells were removed from further analysis. Subsequent analysis proceeded analogously to the droplet-based RNA-seq analysis, with parameter settings that reflected both the wider dynamic range of expression and much smaller cell numbers. The minimum ILC signature score required in ILC type assignment was 0.3. Variable genes were identified by running MeanVarPlot with x.low.cutoff=0.1, y.cutoff=1.5, and x.high.cutoff=10, resulting in a set of 519 genes. […]

B1: IL25 (protein, UniProt Q8VHH8 17-169, looked up)
Interleukin-25: VSLRIQEGCSHLPSCCPSKEQEPPEEWLKWSSASVSPPEPLSHTHHAESCRASKDGPLNSRAISPWSYELDRDLNRVPQDLYHARCLCPHCVSLQTGSHMDPLGNSVPLYHNQTVFYRRPCHGEEGTHRRYCLERRLYRVSLACVCVRPRVMA
B1 was tested, and the 0610031J06Rik expression coeff was 0.555, the 1700017B05Rik expression coeff was −1.49 and the 1700113H08Rik expression coeff was −0.86. The 4632428N05Rik expression coeff was 1.28, the AA467197 expression coeff was −0.724 and the AI593442 expression coeff was −2.55. The AI836003 expression coeff was −0.781, the AW112010 expression coeff was 0.787 and the Abtb2 expression coeff was 0.292. The Acot7 expression coeff was 0.807, the Adrbk1 expression coeff was 0.798 and the Adsl expression coeff was −1.77. The Ahcyl2 expression coeff was −1.01, the Amd1 expression coeff was −0.74 and the Anxa2 expression coeff was 0.693. For the same molecule, the Ap3d1 expression coeff was 0.719, the Arf5 expression coeff was 0.592 and the Arhgap1 expression coeff was 1.34. The Arhgap26 expression coeff was 0.821, the Asl expression coeff was 1.17 and the Asph expression coeff was −1.27. For the same molecule, the Atp8b4 expression coeff was 1, the Atxn7l3b expression coeff was 0.557 and the Bcl2a1d expression coeff was 0.357. The Bcl3 expression coeff was 1.33, the Bcl6 expression coeff was 1.29 and the Bmp2 expression coeff was −0.856. The Brix1 expression coeff was −0.00742, the C1qbp expression coeff was −0.742 and the Cap1 expression coeff was 1.28. The Cblb expression coeff was 1.08, the Ccdc50 expression coeff was 1.05 and the Ccdc142 expression coeff was −1.86. It also gave a Ccng1 expression coeff of 0.622, a Ccr2 expression coeff of −1.53 and a Cd247 expression coeff of 1.16. It also gave a Chdh expression coeff of −0.136, a Chordc1 expression coeff of 1.4 and a Chst11 expression coeff of −0.0352. The Cirbp expression coeff was −1.41, the Commd10 expression coeff was −0.867 and the Cox10 expression coeff was 0.786. For the same molecule, the Cpsf7 expression coeff was 0.986, the Crlf2 expression coeff was 0.355 and the Csf1 expression coeff was −1.01. It also gave a Cst7 expression coeff of −0.0555, a Ctla4 expression coeff of 1.48 and a Ctsw expression coeff of −0.0379. The Cybrd1 expression coeff was −0.158, the Dcaf12 expression coeff was 0.717 and the Ddrgk1 expression coeff was −0.21. The Ddx20 expression coeff was −1.24, the Ddx58 expression coeff was 0.528 and the Dennd5a expression coeff was 0.929. The Dgka expression coeff was −0.0503, the Dhx35 expression coeff was −1.63 and the Dhx37 expression coeff was −0.288. For the same molecule, the Dhx58 expression coeff was 2.3, the Dkk3 expression coeff was −0.0269 and the Dock10 expression coeff was −0.792. It also gave an E030030I06Rik expression coeff of −0.87, an Ecm1 expression coeff of −0.0192 and an Endod1 expression coeff of 0.398. The Epsti1 expression coeff was 1.79, the Eva1b expression coeff was 0.99 and the Exosc4 expression coeff was −0.31. The Extl3 expression coeff was −0.16, the Fam118a expression coeff was −0.764 and the Fbxl21 expression coeff was 12.2. For the same molecule, the Ffar2 expression coeff was 1.36, the Fhl2 expression coeff was −1.07 and the Fosb expression coeff was 0.156. The Foxo3 expression coeff was 2.06, the Fus expression coeff was −0.388 and the Gal3st3 expression coeff was −1.01. For the same molecule, the Gba expression coeff was −0.05, the Gbp4 expression coeff was 0.318 and the Gbp6 expression coeff was 0.949. It also gave a Gbp9 expression coeff of 0.745, a Gga1 expression coeff of 0.739 and a Gigyf1 expression coeff of −0.844. The Glrx expression coeff was 0.346, the Gm12250 expression coeff was 3.54 and the Gnai2 expression coeff was 0.501. The Gng2 expression coeff was 1.06, the Gnl3l expression coeff was −0.617 and the Gp49a expression coeff was 1.04. The Gpr108 expression coeff was 0.205, the Grn expression coeff was −0.326 and the Gskip expression coeff was 0.645. For the same molecule, the Gucd1 expression coeff was −0.0721, the H2-T9 expression coeff was 0.437 and the H2-T10 expression coeff was 0.799. It also gave an H2-T22 expression coeff of 0.0651, a Herc6 expression coeff of 0.579 and a Hpcal1 expression coeff of −0.169. For the same molecule, the Hsph1 expression coeff was 0.237, the Idh2 expression coeff was −0.56 and the Ifi35 expression coeff was 0.307. It also gave an Ifngr2 expression coeff of −0.761, an Ifrd2 expression coeff of −1.53 and an Igfbp4 expression coeff of −2.9. For the same molecule, the Igsf5 expression coeff was −0.93, the Il2rb expression coeff was 0.699 and the Il5 expression coeff was 1.4. It also gave an Il13 expression coeff of 1.61, an Impact expression coeff of −1.46 and an Inpp1 expression coeff of 1.79. It also gave an Inpp4b expression coeff of −0.752, an Inpp5b expression coeff of 0.937 and an Irf4 expression coeff of 1.11. The Irf7 expression coeff was 0.423, the Isg15 expression coeff was 2.03 and the Isg20 expression coeff was 1.54. It also gave an Itgae expression coeff of −0.182, a Kit expression coeff of −0.406 and a Krit1 expression coeff of 0.612. The Lamp2 expression coeff was 0.692, the Lancl1 expression coeff was −1.11 and the Lat2 expression coeff was −0.0259. For the same molecule, the Lcmt2 expression coeff was −2.32, the Lgals3bp expression coeff was 0.804 and the Lgals3 expression coeff was 0.303. It also gave a Lilrb4 expression coeff of 0.943, a Lpcat2 expression coeff of −0.773 and a Lsm6 expression coeff of −0.616. The Lxn expression coeff was 0.065, the Ly6a expression coeff was 0.412 and the Map2k4 expression coeff was 1.89. The Marf1 expression coeff was 3.17.
